Data published in US20170283834A1, “Processes for Producing A Fermentation Product Using A Fermenting Organism” (Novozymes A/S, priority 2014, published 2017).

System: zein
Assay: Relative activity assay of protease variants (zein micro titer plate)
Format: biochemical
Description: Each well contains 200 microL of 0.05-0.1% of zein (Sigma), 0.25 mM ZnSO4 and 1% of agar in 20 mM sodium acetate buffer, pH 4.5.
Yeast clones on SC-glucose were inoculated to a well of a 96-well micro titre plate containing YPD+Zn medium and cultivated at 28° C. for 3 days. The culture supernatants were applied to a 96-well zein micro titer plate and incubated at at least 2 temperatures (ex. 60° C. and 65° C., 70° C. and 75° C., 70° C. and 80° C.) for more than 4 hours or overnight. The turbidity of zein in the plate was measured as A630 and the relative activity (higher/lower temperatures) was determined as an indicator of thermoactivity improvement. The clones with higher relative activity than the parental variant were selected and the sequence was determined.

Molecule | Relative activity 75° C./70° C. (Table 3) [%] | further results
JTP055: protease variant of SEQ ID NO: 3: ΔG8/D79L/S87P (protein, listed as Thermoascus aurantiacus) MRLVASLTALVALSVPVFPAAVNVKRASSYLEITLSQVSNTLIKAVVQNTGSDELSFVHLNFFKDPAPVKKVSVYRDGSEVQFEGILSRYKSTGLSRDAFTYLAPGESVEDVFDIASTYDLTSGGPVTIRTEGVVPYATANSTDIAGYISYSSNVLTIDVDGAAAATVSKAITPLDRRTRISSCSSRQSALTTALRNAASLANAAADAAQSGSASKFSEYFKTTSSSTRQTVAARLRAVAREASSSSSGATTYYCLDPYGYCSPNVLAYTLPSYNIIANCDIFYTYLPALTSTCHAQDQATTALHEFTHAPGVYSPGTDDLAYGYQAAMGLSSSQAVMNADTYALYANAIYLGC | 95 | –
JTP059: protease variant of SEQ ID NO: 3: C6R/D79L/S87P (protein, listed as Thermoascus aurantiacus) MRLVASLTALVALSVPVFPAAVNVKRASSYLEITLSQVSNTLIKAVVQNTGSDELSFVHLNFFKDPAPVKKVSVYRDGSEVQFEGILSRYKSTGLSRDAFTYLAPGESVEDVFDIASTYDLTSGGPVTIRTEGVVPYATANSTDIAGYISYSSNVLTIDVDGAAAATVSKAITPLDRRTRISSRSGSRQSALTTALRNAASLANAAADAAQSGSASKFSEYFKTTSSSTRQTVAARLRAVAREASSSSSGATTYYCLDPYGYCSPNVLAYTLPSYNIIANCDIFYTYLPALTSTCHAQDQATTALHEFTHAPGVYSPGTDDLAYGYQAAMGLSSSQAVMNADTYALYANAIYLGC | 92 | –
JTP072: protease variant of SEQ ID NO: 3: N26R/D79L/S87P (protein, listed as Thermoascus aurantiacus) MRLVASLTALVALSVPVFPAAVNVKRASSYLEITLSQVSNTLIKAVVQNTGSDELSFVHLNFFKDPAPVKKVSVYRDGSEVQFEGILSRYKSTGLSRDAFTYLAPGESVEDVFDIASTYDLTSGGPVTIRTEGVVPYATANSTDIAGYISYSSNVLTIDVDGAAAATVSKAITPLDRRTRISSCSGSRQSALTTALRNAASLARAAADAAQSGSASKFSEYFKTTSSSTRQTVAARLRAVAREASSSSSGATTYYCLDPYGYCSPNVLAYTLPSYNIIANCDIFYTYLPALTSTCHAQDQATTALHEFTHAPGVYSPGTDDLAYGYQAAMGLSSSQAVMNADTYALYANAIYLGC | – | Relative activity 75° C./65° C. (Table 3): 92%
JTP063: protease variant of SEQ ID NO: 3: S49R/D79L/S87P (protein, listed as Thermoascus aurantiacus) MRLVASLTALVALSVPVFPAAVNVKRASSYLEITLSQVSNTLIKAVVQNTGSDELSFVHLNFFKDPAPVKKVSVYRDGSEVQFEGILSRYKSTGLSRDAFTYLAPGESVEDVFDIASTYDLTSGGPVTIRTEGVVPYATANSTDIAGYISYSSNVLTIDVDGAAAATVSKAITPLDRRTRISSCSGSRQSALTTALRNAASLANAAADAAQSGSASKFSEYFKTTSRSTRQTVAARLRAVAREASSSSSGATTYYCLDPYGYCSPNVLAYTLPSYNIIANCDIFYTYLPALTSTCHAQDQATTALHEFTHAPGVYSPGTDDLAYGYQAAMGLSSSQAVMNADTYALYANAIYLGC | 94 | –
JTP079: protease variant of SEQ ID NO: 3: A27G/D79L/S87P/A112P/D142L (protein, listed as Thermoascus aurantiacus) MRLVASLTALVALSVPVFPAAVNVKRASSYLEITLSQVSNTLIKAVVQNTGSDELSFVHLNFFKDPAPVKKVSVYRDGSEVQFEGILSRYKSTGLSRDAFTYLAPGESVEDVFDIASTYDLTSGGPVTIRTEGVVPYATANSTDIAGYISYSSNVLTIDVDGAAAATVSKAITPLDRRTRISSCSGSRQSALTTALRNAASLANGAADAAQSGSASKFSEYFKTTSSSTRQTVAARLRAVAREASSSSSGATTYYCLDPYGYCSPNVLAYTLPSYNIIANCDIFYTYLPPLTSTCHAQDQATTALHEFTHAPGVYSPGTLDLAYGYQAAMGLSSSQAVMNADTYALYANAIYLGC | – | Relative activity 75° C./65° C. (Table 3): 104%
JTP068: protease variant of SEQ ID NO: 3: D79L/S87P/T114P (protein, listed as Thermoascus aurantiacus) MRLVASLTALVALSVPVFPAAVNVKRASSYLEITLSQVSNTLIKAVVQNTGSDELSFVHLNFFKDPAPVKKVSVYRDGSEVQFEGILSRYKSTGLSRDAFTYLAPGESVEDVFDIASTYDLTSGGPVTIRTEGVVPYATANSTDIAGYISYSSNVLTIDVDGAAAATVSKAITPLDRRTRISSCSGSRQSALTTALRNAASLANAAADAAQSGSASKFSEYFKTTSSSTRQTVAARLRAVAREASSSSSGATTYYCLDPYGYCSPNVLAYTLPSYNIIANCDIFYTYLPALPSTCHAQDQATTALHEFTHAPGVYSPGTDDLAYGYQAAMGLSSSQAVMNADTYALYANAIYLGC | 99 | –
JTP069: protease variant of SEQ ID NO: 3: D79L/S87P/S115R (protein, listed as Thermoascus aurantiacus) MRLVASLTALVALSVPVFPAAVNVKRASSYLEITLSQVSNTLIKAVVQNTGSDELSFVHLNFFKDPAPVKKVSVYRDGSEVQFEGILSRYKSTGLSRDAFTYLAPGESVEDVFDIASTYDLTSGGPVTIRTEGVVPYATANSTDIAGYISYSSNVLTIDVDGAAAATVSKAITPLDRRTRISSCSGSRQSALTTALRNAASLANAAADAAQSGSASKFSEYFKTTSSSTRQTVAARLRAVAREASSSSSGATTYYCLDPYGYCSPNVLAYTLPSYNIIANCDIFYTYLPALTRTCHAQDQATTALHEFTHAPGVYSPGTDDLAYGYQAAMGLSSSQAVMNADTYALYANAIYLGC | 103 | –
JTP078: protease variant of SEQ ID NO: 3: A27V/D79L/S87P/A112P/D142L (protein, listed as Thermoascus aurantiacus) MRLVASLTALVALSVPVFPAAVNVKRASSYLEITLSQVSNTLIKAVVQNTGSDELSFVHLNFFKDPAPVKKVSVYRDGSEVQFEGILSRYKSTGLSRDAFTYLAPGESVEDVFDIASTYDLTSGGPVTIRTEGVVPYATANSTDIAGYISYSSNVLTIDVDGAAAATVSKAITPLDRRTRISSCSGSRQSALTTALRNAASLANVAADAAQSGSASKFSEYFKTTSSSTRQTVAARLRAVAREASSSSSGATTYYCLDPYGYCSPNVLAYTLPSYNIIANCDIFYTYLPPLTSTCHAQDQATTALHEFTHAPGVYSPGTLDLAYGYQAAMGLSSSQAVMNADTYALYANAIYLGC | – | Relative activity 75° C./65° C. (Table 3): 100%
JTP088: protease variant of SEQ ID NO: 3: Y43F/D79L/S87P/A112P/D142L (protein, listed as Thermoascus aurantiacus) MRLVASLTALVALSVPVFPAAVNVKRASSYLEITLSQVSNTLIKAVVQNTGSDELSFVHLNFFKDPAPVKKVSVYRDGSEVQFEGILSRYKSTGLSRDAFTYLAPGESVEDVFDIASTYDLTSGGPVTIRTEGVVPYATANSTDIAGYISYSSNVLTIDVDGAAAATVSKAITPLDRRTRISSCSGSRQSALTTALRNAASLANAAADAAQSGSASKFSEFFKTTSSSTRQTVAARLRAVAREASSSSSGATTYYCLDPYGYCSPNVLAYTLPSYNIIANCDIFYTYLPPLTSTCHAQDQATTALHEFTHAPGVYSPGTLDLAYGYQAAMGLSSSQAVMNADTYALYANAIYLGC | – | Relative activity 75° C./65° C. (Table 4): 119%
JTP061: protease variant of SEQ ID NO: 3: T46R/D79L/S87P (protein, listed as Thermoascus aurantiacus) MRLVASLTALVALSVPVFPAAVNVKRASSYLEITLSQVSNTLIKAVVQNTGSDELSFVHLNFFKDPAPVKKVSVYRDGSEVQFEGILSRYKSTGLSRDAFTYLAPGESVEDVFDIASTYDLTSGGPVTIRTEGVVPYATANSTDIAGYISYSSNVLTIDVDGAAAATVSKAITPLDRRTRISSCSGSRQSALTTALRNAASLANAAADAAQSGSASKFSEYFKRTSSSTRQTVAARLRAVAREASSSSSGATTYYCLDPYGYCSPNVLAYTLPSYNIIANCDIFYTYLPALTSTCHAQDQATTALHEFTHAPGVYSPGTDDLAYGYQAAMGLSSSQAVMNADTYALYANAIYLGC | 111 | –
JTP090: protease variant of SEQ ID NO: 3: D79L/S87P/A112P/T124L/D142L (protein, listed as Thermoascus aurantiacus) MRLVASLTALVALSVPVFPAAVNVKRASSYLEITLSQVSNTLIKAVVQNTGSDELSFVHLNFFKDPAPVKKVSVYRDGSEVQFEGILSRYKSTGLSRDAFTYLAPGESVEDVFDIASTYDLTSGGPVTIRTEGVVPYATANSTDIAGYISYSSNVLTIDVDGAAAATVSKAITPLDRRTRISSCSGSRQSALTTALRNAASLANAAADAAQSGSASKFSEYFKTTSSSTRQTVAARLRAVAREASSSSSGATTYYCLDPYGYCSPNVLAYTLPSYNIIANCDIFYTYLPPLTSTCHAQDQALTALHEFTHAPGVYSPGTLDLAYGYQAAMGLSSSQAVMNADTYALYANAIYLGC | – | Relative activity 75° C./65° C. (Table 4): 141%
JTP071: protease variant of SEQ ID NO: 3: D79L/S87P/T116V (protein, listed as Thermoascus aurantiacus) MRLVASLTALVALSVPVFPAAVNVKRASSYLEITLSQVSNTLIKAVVQNTGSDELSFVHLNFFKDPAPVKKVSVYRDGSEVQFEGILSRYKSTGLSRDAFTYLAPGESVEDVFDIASTYDLTSGGPVTIRTEGVVPYATANSTDIAGYISYSSNVLTIDVDGAAAATVSKAITPLDRRTRISSCSGSRQSALTTALRNAASLANAAADAAQSGSASKFSEYFKTTSSSTRQTVAARLRAVAREASSSSSGATTYYCLDPYGYCSPNVLAYTLPSYNIIANCDIFYTYLPALTSVCHAQDQATTALHEFTHAPGVYSPGTDDLAYGYQAAMGLSSSQAVMNADTYALYANAIYLGC | 105 | –
JTP064: protease variant of SEQ ID NO: 3: D79L/S87P/N88R (protein, listed as Thermoascus aurantiacus) MRLVASLTALVALSVPVFPAAVNVKRASSYLEITLSQVSNTLIKAVVQNTGSDELSFVHLNFFKDPAPVKKVSVYRDGSEVQFEGILSRYKSTGLSRDAFTYLAPGESVEDVFDIASTYDLTSGGPVTIRTEGVVPYATANSTDIAGYISYSSNVLTIDVDGAAAATVSKAITPLDRRTRISSCSGSRQSALTTALRNAASLANAAADAAQSGSASKFSEYFKTTSSSTRQTVAARLRAVAREASSSSSGATTYYCLDPYGYCSPRVLAYTLPSYNIIANCDIFYTYLPALTSTCHAQDQATTALHEFTHAPGVYSPGTDDLAYGYQAAMGLSSSQAVMNADTYALYANAIYLGC | 92 | –
